“Also recorded” adds a separate entry of the source.

In one series the test system is HAdV species C. The series is described as follows: Infection assay (hexon staining), HAdV species C. The series is classed as cell-based, human adenovirus. Particulars: 15 µM HD5, A549 cells, hexon staining at ~48 h, vs. no defensin. How it is done:
(§1) To determine whether sensitivity to α-defensins is a general property of HAdVs, serotypes representative of HAdV species A–F were tested for infectivity in the presence of 15 µM HD5 or HNP1 (Figure 1). Wild type HAdVs rather than vectors were used for these studies, and infectivity was assessed by staining for hexon production. […] These studies indicate that sensitivity to α-defensins is species specific. In addition, particular HAdV serotypes are not equally sensitive to all defensins, indicating defensin sequence specificity as well.
(§2) Figure 1 Sensitivity to neutralization by alpha-defensins is AdV species specific. HAdVs were incubated with 15 µM HD5 (A) or HNP1 (B) and assessed for infectivity on A549 cells. Data are the mean of the percent infectivity compared to control cells infected with each virus in the absence of defensin for at least three independent experiments ± SD. The upper limit for quantification of this assay is 200%. […]
(§3) Prior to use in this assay, each virus stock was titrated on A549 cells. […] In parallel, wells were infected with two-fold serial dilutions of each virus to establish a standard curve for quantification with an upper limit of 200%. […] Total well fluorescence above background was quantified with ImageJ software. For each virus, samples were quantified by nonlinear regression against the standard curve using Prism software (GraphPad Software, Inc., La Jolla, CA).

The next series concerns HAdV species E. Briefly: Infection assay (hexon staining), HAdV species E. Particulars: 15 µM HD5, A549 cells, hexon staining at ~48 h, vs. no defensin. The series is classed as cell-based, human adenovirus. How it is done: as §1, §2, §3
The next series relates to HAdV-D serotypes. Briefly: Infection assay (hexon staining), HAdV species D. In kind it is cell-based, human adenovirus. The following applies: 15 µM HD5, A549 cells, hexon staining at ~48 h, vs. no defensin; upper limit 200%. How it is done:
as §1, §2, §3

The test system of series [1] is PB/GYAR. The series is described as follows: Infection assay, PB/GYAR virus chimera. In kind it is cell-based, human adenovirus. How it is done: (§4) Figure 6 Neutralization determinants are located in fiber and penton base. A) Schematic of chimeric viruses. Capsid proteins are depicted in the order in which they are encoded in the virus genome for HAdV-5 (white) and HAdV-19c (grey). The variable residues in fiber (GYAR and DTET) are indicated for each construct. B) Each of the chimeric viruses was incubated with 5 µM (grey) or 10 µM (black) HD5 and assessed for infectivity on A549 cells. Data are the mean of the percent infectivity compared to control cells infected with each virus in the absence of defensin for at least three independent experiments ± SD. The upper limit for quantification of this assay is 200%.
(§5) We then combined the GYAR substitution with the PB substitution in a single construct (PB/GYAR).
(§6) Prior to use in this assay, each virus stock was titrated on A549 cells. A virus concentration was chosen to produce 50–70% maximal signal in the absence of defensin as described below. […] In parallel, wells were infected with two-fold serial dilutions of each virus to establish a standard curve for quantification with an upper limit of 200%. […] Total well fluorescence above background was quantified with ImageJ software. For each virus, samples were quantified by nonlinear regression against the standard curve using Prism software (GraphPad Software, Inc., La Jolla, CA).

Another series relates to HAdV-19c. Briefly: Infection assay, HAdV-19c. In kind it is cell-based, human adenovirus. The procedure:
as §4, §5, §6

Series [2] has as its system PB/GYAR. The series is described as follows: Virus-defensin binding assay, PB/GYAR. The following applies: studies equivalent to Figure 2B, data not shown. More on the design: species or system human adenovirus. How it is done:
as §5
To measure HD5 binding to HAdV-5 and -51, HD5 was serially diluted in PBS and mixed with 5 µg purified virus. After 1 h incubation on ice, one half of each sample was separated by ultracentrifugation [209,000×g (avg.) for 2 hrs at 4°C] on a discontinuous gradient consisting of 300 µl of 30% nycodenz and 200 µl of 80% nycodenz in 50 mM NaCl, 20 mM HEPES pH 7.4 using an SW55ti rotor with adaptors (Beckman Coulter, Inc.). The visible virus band was collected. The other half of each sample was used to make a standard curve for quantification. All samples were boiled in reducing loading buffer and separated using a 16% PAGEgel (Expedeon, Inc., San Diego, CA) or 10–20% Tris-Tricine gel (Bio-Rad, Hercules, CA). The gels were stained with Deep Purple (GE Healthcare) and imaged on a Typhoon Trio. Virus bands were quantified using ImageQuant NT software (GE Healthcare). The amount of HD5 in each sample was normalized to protein V and hexon. The amount of HD5 in the centrifuged samples was then quantified against the standard curve using Prism software. Affinity and stoichiometry were estimated from the average data of at least three independent experiments using Prism software.

The test system of a further series is HAdV-41. Briefly: Infection assay (hexon staining), HAdV-41. The series is classed as cell-based, human adenovirus. The following applies: 15 µM HD5, A549 cells. The procedure:
as §1, §2, §3

For a further series, the system named is HAdV-5 capsid. Particulars: previous observation; cited from earlier work. The text has this:
Therefore, we considered which of the multiple binding sites visualized by cryoEM might lead to enhanced virion stability. We reasoned that we might find a negatively charged region o ... || Based on our combined functional and structural studies, we propose a model for neutralization in which α-defensins bind to critical capsid determinants at the point of contact between fiber and penton base, thereby preventing fiber release. One implication of this model is that fiber dissociation is absolutely required for subsequent uncoating events. This model cannot distinguish between the dissociation of fiber and penton base from the capsid independently or together as a complex. In the first case, defensin may actively lock the fiber onto the penton base. Alternatively, HD5 may obstruct ...

The conditions of series [3]: ref [40], [44]; cited from earlier work. The text has this:
The extensive difference density attributable to HD5 in our cryoEM analysis of Ad5.F35+HD5 is consistent with our estimated stoichiometry. HD5 binding sites were found on all of the major proteins of the capsid. […] The accumulation of HD5 difference density was not equal among the four unique hexon positions in the asymmetric unit but rather was greatest on the peripentonal hexons. Since the possible binding sites presented by each hexon a ...

B1: HD5: human alpha-defensin; synthetic, obtained from Peptides International; three disulfide bonds (PDB 1ZMP) (peptide, UniProt Q01523 20-94, looked up)
Defensin alpha 5: ESLQERADEATTQKQSGEDNQDLAISFAGNGLSALRTSGSQARATCYCRTGRCATRESLSGVCEISGRLYRLCCR
modifications: Defensin-5
In the case of B1, the “sensitivity to neutralization (infectivity)” value was “sensitive” in the series on HAdV species C; “sensitive” in the series with HAdV species E; “completely resistant to HD5-mediated neutralization and, in most cases, infection is actually enhanced” in the series on HAdV-D serotypes. The “sensitivity to HD5 neutralization” value is on record as “completely resistant to neutralization” in the series on PB/GYAR [1] (5 µM and 10 µM HD5, A549 cells, at least three independent experiments); “completely resistant to neutralization” in the series on HAdV-19c (5 µM and 10 µM HD5, A549 cells). The “defensin-resistance at higher HD5 concentration” value with PB/GYAR [1] (20 µM HD5, data not shown) is on record as “confirmed the defensin-resistance”; with HAdV-19c (20 µM HD5, data not shown) it was “confirmed the defensin-resistance”. Moreover, the “amount of HD5 bound compared to HAdV-5” value with PB/GYAR [2] is recorded as “did not detect a reduction in the amount of HD5 bound; also recorded: did not result in a noticeable reduction in overall HD5 binding”. In addition, in the series with HAdV-41, the “sensitivity to HD5” value is listed as “resistant”. Moreover, the “effect on capsid proteins upon exposure to heat” value with HAdV-5 capsid was “stabilizes the capsid and prevents dissociation of capsid proteins, including fiber, upon exposure to heat”. In series [3], the “concentration at which HD5 forms dimers and tetramers” value is “below 5 µM”.

These data come from PMC2891831, “Insight into the Mechanisms of Adenovirus Capsid Disassembly from Studies of Defensin Neutralization” (PLoS Pathogens, 2010).
